Measurements reported in US9081020B2, “Mutant proteins and methods for selecting them” (Heptares Therapeutics Limited, priority 2008, dated 2015).
Numbering of substitutions follows the chain as printed. Names may count otherwise. “And” between values parts separate entries of the source, which are not always exact repeats. Identical values can stand only once. Like-named read-outs stand apart in the source and are kept apart here.

How the values were obtained:
M1 mAChR [1] = assay: thermal stability (Tm) of partially purified [3H]NMS-labelled receptors in 0.1% dodecyl-β-maltoside; assay type: physicochemical, rat; conditions: 0.1% DDM, incubation time 30 min; mean±range/SEM
Procedure: For measurements of thermal melting temperature (Tm), [3H]NMS-labelled receptors were partially purified by immobilized metal ion affinity chromatography from cultures grown from single clones expressed in E. Coli BL21 cells, essentially as described in Hulme and Curtis, 1998 (21). Tm measurements were carried out after gel-filtration of partially purified receptors into 50 mM sodium phosphate, 5 mM β-mercaptoethanol and 0.1% dodecyl-β-maltoside (DDM), using an incubation time of 30 min. Values were tabulated as mean±range/SEM of 2 or more independent measurements (Table 3).

M1 mAChR [2] = assay type: physicochemical; conditions: 3 h, 4° C.; for % 3H-NMS retained BOG: whole E. coli BL21 cells, single culture; for Stability (βOG in-situ) % L65A control: 0.82% β-octyl glucoside, % loss(control)/% loss(mutant), mean±SEM of 3
Procedure: (§1) This concentration was determined by analysing wild-type M1 mAChRs expressed in the inner cell membranes of intact E. Coli strain BL21 cells. The cells were pre-labelled with the radiolabelled antagonist 3H—N-methyl scopolamine and resuspended to a pre-determined cell density (Absorbance at 600 nm=2.0) in a chosen buffer (in this case 50 mM sodium phosphate, 1 mM EDTA, pH 7.5). […] The wild-type M1 mAChRs were titrated by the addition of increasing concentrations of beta octyl glucoside dissolved in the same buffer for different times (e.g. 1 h, 2 h, 3 h, 5 h, 15 h) and at different temperatures (e.g. 4° C., 15° C.). The loss of specifically-bound radioligand was then measured after recovering the cells by centrifugation (15000×g, 15 min.). In the example, the centrifugation step was performed on duplicate 1 ml aliquots of the cells. The experiment was repeated 3 times. […] It will be appreciated that the cell density, detergent concentration and other parameters of the assay may be varied to adjust the loss of activity as appropriate.
(§2) (a) A state of in-situ destabilisation of a particular membrane protein in a particular cell membrane as a result of the addition of a particular concentration of a particular detergent, can be defined by the loss of the characteristic specific ligand binding activity of the membrane protein for a particular ligand of interest in the presence of a defined concentration of a particular detergent molecule or other solubilising agent.
(§3) A preferred version of the assay is destabilisation of a membrane protein-ligand complex in a detergent-enriched membrane. The membrane protein, either in a membrane preparation, or in intact cells in-vivo or ex-vivo, is pre-incubated with a labelled version of the ligand, the label, for instance, being a radioactive label, or a fluorescent label, and the binding step preferably being allowed to proceed to equilibrium, defined as the achievement of a time-invariant level of binding. To define membrane protein-independent, or non-specific, binding the binding step is performed with the addition of a second non-labelled ligand, called the competing ligand, having an appropriate membrane protein-specific pharmacology, at a concentration sufficient fully to occupy the binding sites of the membrane protein and thereby exclude the binding of the labelled ligand. The difference between the binding of the labelled ligand in the absence and presence of the competing ligand is defined as the specific binding of the labelled ligand. Measurement of binding requires a suitable method for separating and measuring bound ligand. Characteristically, this involves centrifugation of intact cells or membranes for a time and at a centrifugal force adequate to pellet them (for instance, 15000×g for 15 min in the case of E. coli cells, or 100,000×g for plasma membrane preparations), or filtration of a membrane suspension e.g. through a suitable filter paper such as glass fibre paper e.g. GF-B or GF-C followed by counting of radioactivity. Alternatively, it might involve the measurement of an optical signal such as enhancement of fluorescence emission in the case of fluorescent ligands.
(§4) To perform the in-situ destabilisation assay, a pre-determined concentration of the detergent or other destabilising agent of choice is mixed with a membrane or cell suspension containing the pre-labelled membrane protein in an appropriate buffer composition at a particular temperature and for a particular time, determined as described below.

M1 mAChR [3] = target: T1, M1 mAChR (Rattus norvegicus, UniProt P08482, DEL225-353/L65A); assay type: physicochemical; conditions: after in-situ destabilisation in BOG or DDM
T1 construct: (His)9QGG (C); expressed in transfected cells; host or cells: E. coli BL21 (whole cells)
T1 sequence (P08482 with tags, fused parts or gaps L65A/DEL225-353): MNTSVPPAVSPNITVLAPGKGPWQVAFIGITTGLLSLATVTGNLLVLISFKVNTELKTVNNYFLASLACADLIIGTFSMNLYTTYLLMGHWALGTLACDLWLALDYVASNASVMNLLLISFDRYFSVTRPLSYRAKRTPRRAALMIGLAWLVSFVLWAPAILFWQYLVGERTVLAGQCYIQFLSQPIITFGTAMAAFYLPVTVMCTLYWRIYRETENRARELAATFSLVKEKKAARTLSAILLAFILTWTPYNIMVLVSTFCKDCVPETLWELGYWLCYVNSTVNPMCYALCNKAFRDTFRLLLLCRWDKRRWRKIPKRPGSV
Procedure: as §1, §2, §3, §4

B1: L65A: M1 mAChR mutant L65A (TM2); background and internal control in Example 3 (protein, UniProt P11229 1-460, looked up, variant L65A)
Muscarinic acetylcholine …: MNTSAPPAVSPNITVLAPGKGPWQVAFIGITTGLLSLATVTGNLLVLISFKVNTELKTVNNYFLASLACADLIIGTFSMNLYTTYLLMGHWALGTLACDLWLALDYVASNASVMNLLLISFDRYFSVTRPLSYRAKRTPRRAALMIGLAWLVSFVLWAPAILFWQYLVGERTVLAGQCYIQFLSQPIITFGTAMAAFYLPVTVMCTLYWRIYRETENRARELAALQGSETPGKGGGSSSSSERSQPGAEGSPETPPGRCCRCCRAPRLLQAYSWKEEEEEDEGSMESLTSSEGEEPGSEVVIKMPMVDPEAQAPTKQPPRSSPNTVKRPTKKGRDRAGKGQKPRGKEQLAKRKTFSLVKEKKAARTLSAILLAFILTWTPYNIMVLVSTFCKDCVPETLWELGYWLCYVNSTINPMCYALCNKAFRDTFRLLLLCRWDKRRWRKIPKRPGSVHRTPSRQC
Tm (0.1% DDM) (M1 mAChR [1]): 29.3 ± 0.4 °C | % 3H-NMS retained BOG (M1 mAChR [2]; 0.82% BOG, listed as L65A 1): 83% and 79% | % 3H-NMS retained BOG (M1 mAChR [2]; 0.82% BOG, listed as L65 A 2): 86% | % 3H-NMS retained BOG (M1 mAChR [2]; 0.82% BOG, listed as L65A 2): 79% | % loss/wt (M1 mAChR [2]; 0.82% BOG, % loss relative to wild-type control, listed as L65A 1): 0.29 and 0.4 | mean % retained (M1 mAChR [2]; 0.82% BOG, mean of the cultures, listed as L65A 1): 84.5% and 79% | Stability (βOG in-situ) % L65A control (M1 mAChR [2]): 100 % L65A control | enhanced stability relative to wild-type (retention of bound 3H-NMS) (M1 mAChR [3]): 2 fold

B2: L65A/C205A: M1 mAChR double mutant, Ala mutation on L65A background (protein, UniProt P11229 1-460, looked up, variant L65A C205A)
Muscarinic acetylcholine …: B1 Muscarinic acetylcholine … with C205A
Tm (0.1% DDM) (M1 mAChR [1]): 28.1 ± 0.1 °C | Stability (βOG in-situ) % L65A control (M1 mAChR [2]): 106 ± 5 % L65A control

B3: L65A/Y208A: M1 mAChR double mutant, Ala mutation on L65A background (protein, UniProt P11229 1-460, looked up, variant L65A Y208A)
Muscarinic acetylcholine …: B1 Muscarinic acetylcholine … with Y208A
Tm (0.1% DDM) (M1 mAChR [1]): 29.6 ± 0.5 °C | Stability (βOG in-situ) % L65A control (M1 mAChR [2]): 100 ± 7 % L65A control

B4: L65A/L402A: M1 mAChR double mutant, Ala mutation on L65A background (protein, UniProt P11229 1-460, looked up, variant L65A L402A)
Muscarinic acetylcholine …: B1 Muscarinic acetylcholine … with L402A
Tm (0.1% DDM) (M1 mAChR [1]): 30.1 ± 0.5 °C | Stability (βOG in-situ) % L65A control (M1 mAChR [2]): 105 ± 10 % L65A control
